# According to patent US20240092897A1 (SHANGHAI JMT BIO TECHNOLOGY, published 2024):
# T1: Human Siglec-15, His Tag (human Siglec-15 full-length extracellular domain linked with His tag) (human, UniProt Q6ZMC9 20-263)
# T1 construct: Bought from ACROBiosystems; also called Siglec-15 protein; SG5-H52H3
# T1 sequence: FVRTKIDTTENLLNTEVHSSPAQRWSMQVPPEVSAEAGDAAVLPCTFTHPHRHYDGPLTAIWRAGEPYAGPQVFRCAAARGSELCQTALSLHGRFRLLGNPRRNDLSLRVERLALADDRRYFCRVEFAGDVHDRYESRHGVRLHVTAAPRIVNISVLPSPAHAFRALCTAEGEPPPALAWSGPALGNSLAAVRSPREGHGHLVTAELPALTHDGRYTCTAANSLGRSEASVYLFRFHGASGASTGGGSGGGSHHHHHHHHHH
# T2: Cynomolgus Monkey Siglec-15 full-length extracellular domain linked with His tag (Cynomolgus Monkey)
# T2 construct: Bought from ACROBiosystems; also called SG5-052H6
# T2 chain: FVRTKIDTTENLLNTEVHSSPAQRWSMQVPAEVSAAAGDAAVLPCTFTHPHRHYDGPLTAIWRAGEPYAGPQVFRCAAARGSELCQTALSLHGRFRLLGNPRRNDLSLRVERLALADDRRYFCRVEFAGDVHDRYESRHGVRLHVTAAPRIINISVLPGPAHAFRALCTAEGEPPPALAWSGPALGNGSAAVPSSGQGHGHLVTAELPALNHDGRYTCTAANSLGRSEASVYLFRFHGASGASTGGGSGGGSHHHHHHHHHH
# T3: Human Siglec-15 overexpressed on HEK293T cells (HEK293T-hu-S15) (human, UniProt Q6ZMC9 20-328)
# T3 construct: whole, on cells; also called HEK293T-hu-S15 cell line
# T3 sequence (looked up): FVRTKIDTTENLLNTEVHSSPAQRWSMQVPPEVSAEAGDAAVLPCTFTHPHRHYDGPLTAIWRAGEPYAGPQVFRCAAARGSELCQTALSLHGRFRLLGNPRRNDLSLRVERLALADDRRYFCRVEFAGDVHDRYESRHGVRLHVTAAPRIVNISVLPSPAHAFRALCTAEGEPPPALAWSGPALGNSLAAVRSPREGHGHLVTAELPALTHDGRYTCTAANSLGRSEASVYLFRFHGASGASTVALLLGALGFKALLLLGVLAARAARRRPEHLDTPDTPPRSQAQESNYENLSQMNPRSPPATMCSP
# T4: Mouse Siglec-15 full-length extracellular domain linked with His tag (mouse)
# T4 construct: Bought from ACROBiosystems; also called SG5-M52H7
# T4 chain: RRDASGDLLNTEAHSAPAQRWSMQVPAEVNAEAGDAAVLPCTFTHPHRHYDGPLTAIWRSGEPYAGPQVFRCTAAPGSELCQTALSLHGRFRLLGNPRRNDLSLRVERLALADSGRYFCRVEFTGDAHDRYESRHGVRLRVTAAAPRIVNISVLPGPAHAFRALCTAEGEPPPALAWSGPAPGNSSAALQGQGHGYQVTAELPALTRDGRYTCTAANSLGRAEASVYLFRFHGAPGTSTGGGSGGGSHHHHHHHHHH
# Columns and labels:
# [1] = biological target: T1, Human Siglec-15, His Tag (human …); assay: Octet BLI epitope binning, Siglec-15 His on HIS1K sensor; competitor 124B11F6
# Description: (§1) Epitope binning assays were performed using the Octet RED96e (ForteBio) System for the antibodies tested. Human Siglec-15, His Tag (Cat. No. SG5-H52H3) (5 μg/mL) was captured by the HIS1K biosensor and bound to primary antibody (100 nM) for 180 s. Then, the Human Siglec-15, His Tag (antigen)-primary antibody was bound to secondary antibody (100 nM) on the biosensors for 90 s. Data analysis was performed using Octet RED96e (ForteBio) analysis software.
# [2] = biological target: T1, Human Siglec-15, His Tag (human …); assay: Octet BLI epitope binning, Siglec-15 His on HIS1K sensor; competitor 255C12B10
# Description: as §1
# [3] = biological target: T1, Human Siglec-15, His Tag (human …); assay: ELISA, coated antigen
# Description: (§2) The variable regions from the antibodies produced by the hybridomas were combined with human IgG1 (N297A) constant regions to generate chimeric antibodies, named as 21F6C6, 75E1F2, 124B11F6, 174C11C9, and 255C12B10, respectively. Binding activity assays were performed on the chimeric antibodies using Siglec-15 proteins from different species, in which human, mouse and Cynomolgus Monkey Siglec-15 proteins were purchased from ACROBiosystems (Beijing, China). Antigen was coated at 0.5 μg/ml, and antibodies were diluted starting from 1 μg/ml and incubated with antigen. Horseradish peroxidase-labeled Anti-Human IgG antibody was used as the secondary antibody and OD₄₅₀ values were read after adding the substrate.
# [4] = biological target: T2, Cynomolgus Monkey Siglec-15 full-length …; assay: ELISA, coated antigen
# Description: as §2
# [5] = biological target: T3, Human Siglec-15 overexpressed on …; assay: flow cytometry on HEK293T-hu-S15 cells, detection with anti-human IgG (Fc specific)-FITC, average fluorescence intensity
# Description: HEK293T cell line overexpressing Siglec-15 (HEK293T-hu-S15) was purchased from KYinno Biotechnology Co., Ltd (Beijing, China) under Catalog #KC-1314. Purified anti-Siglec-15 chimeric antibodies were diluted at a gradient of 100 nM and incubated with HEK293T-hu-S15 cells at 4° C. for 30 min. Flow cytometry was performed after addition of anti-human IgG (Fc specific)-FITC (cat. #F9512) and incubation for 30 min.
# [6] = biological target: T1, Human Siglec-15, His Tag (human …); assay: Octet BLI epitope binning, Siglec-15 His on HIS1K sensor; competitor 21F6C6
# Description: as §1
# [7] = biological target: T1, Human Siglec-15, His Tag (human …); assay: SPR Biacore 8K, antibody captured by anti-human Fc, Siglec-15 His as analyte
# Description: Affinity analysis was performed using Biacore8K, and a CM5 chip immobilized with anti-human Fc antibody was used to capture the antibodies tested. The stock solutions of the antibodies to be tested were diluted to 5 μg/mL, and injected sequentially into the experimental channels at a flow rate of 10 μL/min at about 500 RU. The analyte was Human Siglec-15, His Tag (Cat. #SG5-H52H3), the diluted human Siglec-15 protein was injected sequentially into the experimental channels and the control channel at a flow rate of 30 μL/min and allowing for a binding time of 150 s and a dissociation time of 700 s. The KD value of each antibody was calculated using Biacore 8K analysis software.
# [8] = biological target: T1, Human Siglec-15, His Tag (human …); assay: Octet BLI epitope binning, Siglec-15 His on HIS1K sensor; competitor 174C11C9
# Description: as §1
# [9] = biological target: T4, Mouse Siglec-15 full-length …; assay: ELISA, coated antigen
# Description: as §2
# [10] = biological target: T1, Human Siglec-15, His Tag (human …); assay: Octet BLI epitope binning, Siglec-15 His on HIS1K sensor; competitor 75E1F2
# Description: as §1
# [11] = biological target: T1, Human Siglec-15, His Tag (human …); assay: SPR Biacore, antibody captured by anti-human Fc on CM5, Siglec-15 protein as analyte
cross-competition score [1],cross-competition score [2],EC50 [3],EC50 [4],EC50 [5],cross-competition score [6],Kd [7],koff [7],kon [7],cross-competition score [8],EC50 [9],cross-competition score [10],Kd [11],koff [11],kon [11],Binder
25.6%,69.2%,0.0186 µg/mL,12.2 ng/mL,1.88 nM,23.3%,0.93 nM,0.000782 s⁻¹,841000 M⁻¹ s⁻¹,23%,,,,,,"75E1F2 chimeric antibody (antibody, V domains shown, Mouse variable regions combined with human IgG1 (N297A) constant regions) VH: EVQLVESGGGSVKPGGSLKLSCAASGFTFSDYGMHWVRQAPEKGLEWITYISSGSSIIDYSDTVKGRFTISRDNAKDTLFLQMTSLRSEDTAIYYCVRREDHYAMDYWGQGTSVTVSS VL: DIVMTQSHKFLSTSVGDRVSITCKASQDVYTAVAWFQQKPGQSPKLLFYSASYRFTGVPDRFNGSGSGTDFTLTITSMQAEDLAVYYCQQHYSTPWTFGGGTKLEIK"
18.9%,,0.00562 µg/mL,5.46 ng/mL,3.77 nM,20.4%,0.536 nM,0.000158 s⁻¹,296000 M⁻¹ s⁻¹,18.3%,0.0228 µg/mL,11.4%,,,,"255C12B10 chimeric antibody (antibody, V domains shown, Mouse variable regions combined with human IgG1 (N297A) constant regions) VH: EVQLQQSGPELVKPGASVKMSCKASGYTFTGYNMNWVKQSHGKSLEWIGYINPNNGGTRYNQKFKGKATLTINKSSSTAYMELRSLTSEDSAVYYCARDYGIDYWGQGTTLTVSS VL: EIQMTQSPSSMSASLGDRITITCQATQDIVKNLNWYQQKPGKPPSFLIYYATELAEGVPSRFSGSGSGSDYSLTISNLESEDFADYYCLQFYEFPYTFGGGTKLEIK"
,44.9%,0.0216 µg/mL,16 ng/mL,9.44 nM,108%,0.00143 nM,1.46e-07 s⁻¹,102000 M⁻¹ s⁻¹,79.5%,0.0212 µg/mL,22.7%,0.0834 nM,0.000114 s⁻¹,1.37e+06 M⁻¹ s⁻¹,"124B11F6 chimeric antibody (antibody, human IgG1, V domains shown, also called 124B11F6-mHL) VH: EVQLQQSGAELVRPGASVKLSCTASVFNIKDYYMHWVKQRTEQGLEWIGRIDPEDDKTKYAPKFQGKATITADTSSNTAYLHLSTLTSEDTAVYYCVRGWLGYIMDFWGQGTSVTVSS VL: QLVLTQSSSASFSLGASAKLTCTLSSQHSTYTIDWYQQQPLKPPKYVMELKEDGSHSTGDGIPDRFSGSSSGADRYLGISNIQPEDEAVYICGVGATIKEQFVYVFGGGTKVTVL"
73.4%,52.4%,0.00522 µg/mL,7.48 ng/mL,1.59 nM,7.68%,0.305 nM,0.00037 s⁻¹,1.21e+06 M⁻¹ s⁻¹,,0.00985 µg/mL,4.2%,0.175 nM,0.000305 s⁻¹,1.74e+06 M⁻¹ s⁻¹,"174C11C9 chimeric antibody (antibody, human IgG1, V domains shown, also called 174C11C9-mHL) VH: EVQLQQSGPVLVKPGASVKMSCEASGYIFTDYYMNWVKQSPGKSLEWIGVFNPYSGGISYNQKFKGKATLTVDTSSSTAYMELNSLTSEDSAVYYCARDYYYLSSHGFYALDYWGQGTSVTVSS VL: DIVLTQSPASLAVSLGQRATISCRASESVDSYGNSFIHWYQQRPGRPPKLLMYRASNLESGIPARFSGSGSRTDFTLTIDPVEADDVATYYCQQSNEDPLTFGAGTKLELK"
